Results reported in patent US20250051465A1 (published 2025).

T1: human LEPR extracellular domain expressed with a C-terminal mouse IgG2a Fc tag (hLEPR.mFc) (human)
T1 construct: also called dimeric human LEPR
T1 chain: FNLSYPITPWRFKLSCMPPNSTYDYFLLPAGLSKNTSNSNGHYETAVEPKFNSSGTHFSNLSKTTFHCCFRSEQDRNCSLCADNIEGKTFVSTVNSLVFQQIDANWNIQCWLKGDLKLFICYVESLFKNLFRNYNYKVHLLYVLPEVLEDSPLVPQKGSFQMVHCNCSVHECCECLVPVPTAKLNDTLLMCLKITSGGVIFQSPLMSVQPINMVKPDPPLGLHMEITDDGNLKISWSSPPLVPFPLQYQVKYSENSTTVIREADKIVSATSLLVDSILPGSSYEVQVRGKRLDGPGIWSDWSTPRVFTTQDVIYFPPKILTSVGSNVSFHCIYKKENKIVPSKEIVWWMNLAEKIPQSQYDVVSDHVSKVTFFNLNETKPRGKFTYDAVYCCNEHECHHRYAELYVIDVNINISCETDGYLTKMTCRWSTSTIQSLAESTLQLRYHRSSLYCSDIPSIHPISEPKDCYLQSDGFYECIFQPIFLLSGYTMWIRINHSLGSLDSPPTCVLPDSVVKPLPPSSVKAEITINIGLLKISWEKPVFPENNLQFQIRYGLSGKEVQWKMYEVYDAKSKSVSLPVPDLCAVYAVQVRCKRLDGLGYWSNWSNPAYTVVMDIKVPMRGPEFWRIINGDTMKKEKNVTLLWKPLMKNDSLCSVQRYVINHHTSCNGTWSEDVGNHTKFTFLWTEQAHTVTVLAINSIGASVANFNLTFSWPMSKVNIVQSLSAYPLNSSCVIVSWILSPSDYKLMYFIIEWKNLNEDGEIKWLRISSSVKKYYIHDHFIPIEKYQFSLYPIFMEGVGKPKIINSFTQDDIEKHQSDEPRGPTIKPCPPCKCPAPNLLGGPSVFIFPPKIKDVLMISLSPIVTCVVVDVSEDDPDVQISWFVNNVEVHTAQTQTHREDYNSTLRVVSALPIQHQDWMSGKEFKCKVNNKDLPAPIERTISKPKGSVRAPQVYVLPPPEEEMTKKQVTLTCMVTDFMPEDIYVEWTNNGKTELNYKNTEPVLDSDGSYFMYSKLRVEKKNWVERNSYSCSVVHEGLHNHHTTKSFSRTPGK


Assays:
[1] = target: T1, human LEPR extracellular domain …; experiment: SPR, captured mAb, 37C
Experimental: (§1) Equilibrium dissociation constants (KD values) for LEPR binding to purified anti-LEPR monoclonal antibodies were determined using a real-time surface plasmon resonance biosensor using a Biacore 4000 instrument. All binding studies were performed in 10 mM HEPES, 150 mM NaCl, 3 mM EDTA, and 0.05% v/v Surfactant Tween-20, pH 7.4 (HBS-ET) running buffer at 25° C. and 37° C. The Biacore sensor surface was first derivatized by amine coupling with a monoclonal mouse anti-human Fc antibody (GE, #BR-1008-39) to capture anti-LEPR monoclonal antibodies. […] Kinetic association (kₐ) and dissociation (kd) rate constants were determined by fitting the real-time binding sensorgrams to a 1:1 binding model with mass transport limitation using Scrubber 2.0c curve-fitting software. Binding dissociation equilibrium constants (KD) and dissociative half-lives (t½) were calculated from the kinetic rate constants as: […]

[2] = target: T2, human LEPR extracellular domain expressed with a C-terminal myc-myc-hexahistidine tag (hLEPR.mmh) (human, UniProt P48357 22-839); experiment: Luminex, myc-captured full length extracellular domain
T2 construct: also called human LEPR-MMH; monomeric human LEPR
Experimental: Aliquots of microspheres with immobilized anti-myc monoclonal antibodies, prepared as described above, were added individually to 1 mL of the each of these protein supernatants. The microspheres were gently mixed, incubated for two hours at 25° C., washed twice with 1 mL of DBPS, centrifuged to remove the supernatant and finally resuspended in 1 mL of DPBS buffer. Forty-eight μL of anti-myc IgG coupled microspheres from individual reactions with full length human LEPR and with each of the human LEPR domain proteins were withdrawn and mixed together in 3.6 mL of PBS+20 mg/mL BSA+0.05% sodium azide (blocking buffer).
From this mixed pool, 75 μL of microspheres were plated per well on a 96 well filter plate (Millipore, Cat. No: MSBVN1250) and mixed with 25 μL of individual anti-human LEPR monoclonal antibodies (0.5 or 5 µg/mL), incubated for two hours at 25° C. and then washed twice with 200 μL of DPBS with 0.05% Tween 20 (washing buffer). […] After 30 minutes, the samples were washed twice with 200 μL of washing buffer and resuspended in 150 μL of wash buffer. The Median Fluorescence intensity (MFI) of the microspheres was measured in a Luminex Analyzer.

[3] = target: T3, Macaca fascicularis LEPR extracellular domain expressed with a C-terminal myc-myc-hexahistidine tag … (Macaca fascicularis, UniProt Q9MYL0 22-837 (rhesus entry)); experiment: SPR, captured mAb, 37C
T3 construct: also called mfLEP.MMH
Experimental: as §1

[4] = target: extracellular domain of Macaca fascicularis LEPR fused with the transmembrane and cytosolic domains of human … (Macaca fascicularis; human, UniProt P48357 840-1165); experiment: cell-based or functional assay
Sequence of extracellular domain of Macaca fascicularis LEPR fused with the transmembrane and cytosolic domains of human … (P48357 840-1165, form in doubt): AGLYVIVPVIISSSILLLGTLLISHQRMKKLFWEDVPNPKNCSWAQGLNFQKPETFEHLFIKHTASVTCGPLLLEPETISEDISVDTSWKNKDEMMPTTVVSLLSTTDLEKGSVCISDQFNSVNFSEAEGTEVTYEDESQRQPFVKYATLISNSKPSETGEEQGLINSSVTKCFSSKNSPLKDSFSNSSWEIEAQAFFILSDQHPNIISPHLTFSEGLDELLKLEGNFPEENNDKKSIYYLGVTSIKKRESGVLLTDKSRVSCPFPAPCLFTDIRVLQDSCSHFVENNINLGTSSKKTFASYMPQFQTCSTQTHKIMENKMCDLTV

100 nM hLEPR-mFc Bound (RU) [1]	Kd [1]	koff [1]	kon [1]	t½ [1]	MFI [2]	100 nM mfLEPR.MMH Bound (RU) [3]	Kd [3]	koff [3]	kon [3]	t½ [3]	% Activation [4]	EC50, STAT3-Luc reporter, IMR-32/STAT3-Luc/MfLEPR cells [4]	Binder
148 RU	1.26 nM	0.000168 s⁻¹	133000 M⁻¹ s⁻¹	69 min	7980 MFI								H4H18449P2 (antibody, human IgG4, V domains shown, Fully human antibody with human IgG4 Fc (H4H prefix)) VH: EVQLVESGGGLVQPGGSLRLSCVASGFTFNKYDMHWVRQTTGKGLEWVSGIDTDGDTYYPGSVKGRFTISRENAENSLYLQMNGLRVGDTAVYYCARWPWSGFYGAFDIWGQGTMVTVSS VL: not shown
34 RU	12.8 nM	0.000548 s⁻¹	42700 M⁻¹ s⁻¹	21 min	10500 MFI	30 RU	140 nM	0.00354 s⁻¹	25300 M⁻¹ s⁻¹	3.3 min			H4H18446P2 (antibody, human IgG4, V domains shown, Fully human antibody with human IgG4 Fc (H4H prefix)) VH: EVQLVESGGGLVQPGGSLRLSCAASGFTFSNYGMTWVRQAPGKGLEWVSAITGGGGSTYYSNSVKGRFTISRDNSKNTVYLRMNSVRAEDTAVYYCAKYKWNFVDDWGQGTTVTVSS VL: not shown
104 RU	3.89 nM	0.000608 s⁻¹	156000 M⁻¹ s⁻¹	19 min	6570 MFI	48 RU	264 nM	0.019 s⁻¹	71700 M⁻¹ s⁻¹	0.6 min			H4H18445P2 (antibody, human IgG4, V domains shown, Fully human antibody with human IgG4 Fc (H4H prefix)) VH: QVQLQESGPGLVKPSQTLSLTCTVSGGSISSGGDYWSWIRQLPGKGLEWIGYIYYSGSAYYNPSLKSRGTISIDTSKNQFSLKLTSVTAADTAVYFCVKLRFLEWFLGGWFGPWGQGTLVTVSS VL: not shown

More lines, now with the values behind:

Binder	100 nM hLEPR-mFc Bound (RU) [1]	Kd [1]	koff [1]	kon [1]	t½ [1]	MFI [2]	100 nM mfLEPR.MMH Bound (RU) [3]	Kd [3]	koff [3]	kon [3]	t½ [3]	% Activation [4]	EC50, STAT3-Luc reporter, IMR-32/STAT3-Luc/MfLEPR cells [4]
H4H18438P2 (antibody, human IgG4, V domains shown, Fully human antibody with human IgG4 Fc (H4H prefix)) VH: QVQLVESGGGVVQPGRSLRLSCAASGFSFNTYGMHWVRQAPGKGLEWVTIIWYDGSIKYYADSVKGRFTISRDNSKNTLYLQMNSLRAEDTAVYYCARGGYSGYLYFDYWGQGTLVTVSS VL: not shown	82 RU	8.53 nM	0.000598 s⁻¹	70200 M⁻¹ s⁻¹	19 min	6250 MFI							
H4H16679P2 (antibody, human IgG4, V domains shown, Fully human antibody with human IgG4 Fc (H4H prefix)) VH: QVQLVESGGGVVQPGRSLRLSCTASGFTFSSYAMYWVRQAPGKGLEWVSVIYYDGSYKYYADSVKGRFTISRDNSKNTLYLQMDSLRAEDTAVYYCASYNWNYWYFDFWGRGTLVTVSS VL: not shown	116 RU	2.56 nM	0.00031 s⁻¹	121000 M⁻¹ s⁻¹	37 min	7510 MFI	104 RU	10.4 nM	0.000677 s⁻¹	64900 M⁻¹ s⁻¹	17 min	80%	0.249 nM
H4H17321P2 (antibody, human IgG4, V domains shown, Fully human antibody with human IgG4 Fc (H4H prefix)) VH: QVQLVESGGGVVQPGRSLRLSCEASGFSSSDNAMYWVRQAPGKGLEWVSVIYHDGSYKYYEDSVKGRFTIARDNSKNTLYLQMNSLRAEDTAVYYCARYNWNHWYFDVWGRGTLVTVSS VL: not shown	110 RU	3.15 nM	0.000174 s⁻¹	55300 M⁻¹ s⁻¹	66 min	4700 MFI	143 RU	5.18 nM	0.000257 s⁻¹	49700 M⁻¹ s⁻¹	45 min	78%	0.368 nM
H4H18417P2 (antibody, human IgG4, V domains shown, Fully human antibody with human IgG4 Fc (H4H prefix)) VH: QVQLVESGGGVVQPGRSLRLSCAASGFTFSTYGMHWVRQAPGKGLEWVSVISYDESNKYYADSVKGRFTISRDNSKNALYLQMNSLRNEDTAVYYCARDRPFGLVTGWFDPWGQGTLVTVSS VL: not shown	111 RU	5.64 nM	0.00105 s⁻¹	185000 M⁻¹ s⁻¹	11 min	4890 MFI	28 RU	217 nM	0.0263 s⁻¹	122000 M⁻¹ s⁻¹	0.4 min		
H4H16650P2 (antibody, human IgG4, V domains shown, Fully human antibody with human IgG4 Fc (H4H prefix)) VH: QVQLVESGGGVVQPGKSLRLSCVASGFTFSSDAMYWVRQAPGKGLEWVAVIYYDGNYQYYEDSVKGRFTISRDNSQNTLDLQMNSLRVDDTAVYFCARLNWDYWYLDLWGRGTLVTVSS VL: not shown	145 RU	1.79 nM	0.00028 s⁻¹	157000 M⁻¹ s⁻¹	41 min	7600 MFI	134 RU	5.76 nM	0.0007 s⁻¹	122000 M⁻¹ s⁻¹	16 min	82%	0.266 nM
H4H17319P2 (antibody, human IgG4, V domains shown, Fully human antibody with human IgG4 Fc (H4H prefix)) VH: QVQLVESGGSVVQPGRSLRLSCAASGFTFSTYAMYWVRQTPGKGLEWVAVLYSDGSNKYYIDSVKGRFTISRDTSTNTLYLQMSSLRADDSALYYCARLNWDYWYFDLWGRGTLVTVSS VL: not shown	100 RU	7.66 nM	0.000652 s⁻¹	85100 M⁻¹ s⁻¹	18 min	3300 MFI	113 RU	60.1 nM	0.00324 s⁻¹	53900 M⁻¹ s⁻¹	3.6 min	76%	0.365 nM
